B1: RapF [B. subtilis] / PhrF [B. subtilis] (parent)
chain 1: MTGVISSSSIGEKINEWYMYIRRFSIPDAEYLRREIKQELDQMEEDQDLHLYYSLMEFRHNLMLEYLEPLEKMRIEEQPRLSDLLLEIDKKQARLTGLLEYYFNFFRGMYELDQREYLSAIKFFKKAESKLIFVKDRIEKAEFFFKMSESYYYMKQTYFSMDYARQAYEIYKEHEAYNIRLLQCHSLFATNFLDLKQYEDAISHFQKAYSMAEAEKQPQLMGRTLYNIGLCKNSQSQYEDAIPYFKRAIAVFEESNILPSLPQAYFLITQIHYKLGKIDKAHEYHSKGMAYSQKAGDVIYLSEFEFLKSLYLSGPDEEAIQGFFDFLESKMLYADLEDFAIDVAKYYHERKNFQKASAYFLKVEQVRQLIQGGVSLYEIEV
chain 2: QRGMI
B2: RapF [B. subtilis] / PhrC [B. subtilis] (parent)
chain 1: B1 chain 1
chain 2: ERGMT

Variants of: B1
Assay: thermal-shift assay (Sypro orange fluorescence)
Conditions: with PhrF [B. subtilis], printed Tm without peptide: mutant 50.1 °C, wild type 49.5 °C

Variant | screen value
chain 1 MTGVISSSSIGEKINEWYMYIRRFSIPDAEYLRREIKQELDQMEEDQDLHLYYSLMEFRHNLMLEYLEPLEKMRIEEQPRLSDLLLEIDKKQARLTGLLEYYFNFFRGMYELDQREYLSAIKFFKKAESKLIFVKDRIEKAEFFFKMSESYYYMKQTYFSMDYARQAYEIYKEHEAYNIRLLQCHSLFATNFLDLKQYEDAISHFQKAYSMAEAEKQPQLMGRTLYAIGLCKNSQSQYEDAIPYFKRAIAVFEESNILPSLPQAYFLITQIHYKLGKIDKAHEYHSKGMAYSQKAGDVIYLSEFEFLKSLYLSGPDEEAIQGFFDFLESKMLYADLEDFAIDVAKYYHERKNFQKASAYFLKVEQVRQLIQGGVSLYEIEV [chain 1 N227A] | 49.2 °C

Same assay, conditions: with PhrF [B. subtilis], printed Tm without peptide: mutant 53.4 °C, wild type 49.5 °C

Variant | screen value
chain 1 MTGVISSSSIGEKINEWYMYIRRFSIPDAEYLRREIKQELDQMEEDQDLHLYYSLMEFRHNLMLEYLEPLEKMRIEEQPRLSDLLLEIDKKQARLTGLLEYYFNFFRGMYELDQREYLSAIKFFKKAESKLIFVKDRIEKAEFFFKMSESYYYMKQTYFSMDYARQAYEIYKEHEAYNIRLLQCHSLFATNFLALKQYEDAISHFQKAYSMAEAEKQPQLMGRTLYNIGLCKNSQSQYEDAIPYFKRAIAVFEESNILPSLPQAYFLITQIHYKLGKIDKAHEYHSKGMAYSQKAGDVIYLSEFEFLKSLYLSGPDEEAIQGFFDFLESKMLYADLEDFAIDVAKYYHERKNFQKASAYFLKVEQVRQLIQGGVSLYEIEV [chain 1 D194A] | 53.3 °C

Variants of: B2
Assay: thermal-shift assay (Sypro orange fluorescence)
Conditions: with PhrC [B. subtilis], printed Tm without peptide: mutant 53.4 °C, wild type 49.5 °C

Variant | screen value
chain 1 MTGVISSSSIGEKINEWYMYIRRFSIPDAEYLRREIKQELDQMEEDQDLHLYYSLMEFRHNLMLEYLEPLEKMRIEEQPRLSDLLLEIDKKQARLTGLLEYYFNFFRGMYELDQREYLSAIKFFKKAESKLIFVKDRIEKAEFFFKMSESYYYMKQTYFSMDYARQAYEIYKEHEAYNIRLLQCHSLFATNFLALKQYEDAISHFQKAYSMAEAEKQPQLMGRTLYNIGLCKNSQSQYEDAIPYFKRAIAVFEESNILPSLPQAYFLITQIHYKLGKIDKAHEYHSKGMAYSQKAGDVIYLSEFEFLKSLYLSGPDEEAIQGFFDFLESKMLYADLEDFAIDVAKYYHERKNFQKASAYFLKVEQVRQLIQGGVSLYEIEV [chain 1 D194A] | 52.3 °C

Same assay, conditions: with PhrC [B. subtilis], printed Tm without peptide: mutant 50.1 °C, wild type 49.5 °C

Variant | screen value
chain 1 MTGVISSSSIGEKINEWYMYIRRFSIPDAEYLRREIKQELDQMEEDQDLHLYYSLMEFRHNLMLEYLEPLEKMRIEEQPRLSDLLLEIDKKQARLTGLLEYYFNFFRGMYELDQREYLSAIKFFKKAESKLIFVKDRIEKAEFFFKMSESYYYMKQTYFSMDYARQAYEIYKEHEAYNIRLLQCHSLFATNFLDLKQYEDAISHFQKAYSMAEAEKQPQLMGRTLYAIGLCKNSQSQYEDAIPYFKRAIAVFEESNILPSLPQAYFLITQIHYKLGKIDKAHEYHSKGMAYSQKAGDVIYLSEFEFLKSLYLSGPDEEAIQGFFDFLESKMLYADLEDFAIDVAKYYHERKNFQKASAYFLKVEQVRQLIQGGVSLYEIEV [chain 1 N227A] | 49.2 °C

Same assay, conditions: with PhrC [B. subtilis], printed Tm without peptide: mutant 51.3 °C, wild type 49.5 °C

Variant | screen value
chain 1 MTGVISSSSIGEKINEWYMYIRRFSIPDAEYLRREIKQELDQMEEDQDLHLYYSLMEFRHNLMLEYLEPLEKMRIEEQPRLSDLLLEIDKKQARLTGLLEYYFNFFRGMYELDQREYLSAIKFFKKAESKLIFVKDRIEKAEFFFKMSESYYYMKQTYFSMDYARQAYEIYKEHEAYNIRLLQCHSLFATNFLDLKQYEDAISHFQKAYSMAEAEKQPQLMGRTLYNIGLCKNSQSQYEDAIPYFKRAIAVFEESNILPSLPQAYFLITQIHYKLGKIDKAHEYHSKGMAYSQKAGDVIYLSAFEFLKSLYLSGPDEEAIQGFFDFLESKMLYADLEDFAIDVAKYYHERKNFQKASAYFLKVEQVRQLIQGGVSLYEIEV [chain 1 E303A] | 53.8 °C

Reference: PMC3601957, “Structural Basis of Rap Phosphatase Inhibition by Phr Peptides” (PLoS Biology, 2013)
